From US11781101B2, “3D-printed models of biological microenvironments” (Regents of the University of Minnesota, priority 2018, dated 2023)

Experiments:
[1] = tested on: GFP-A549 lung cancer cells; assay: 3D-printed directional cell migration chamber, EGF capsules, A549; assay type: cell-based
Description: In the example experiment illustrated in FIG. 14, a droplet of fibrin loaded with GFP-A549 lung cancer cells 1400 was printed between linear arrays of chemoattractant capsules 1404 (right) and blank control capsules 1402 (left). The printed droplet defined the primary site of the tumor cells 1400. To generate a long-lasting EGF gradient, capsules 1402 and 1404 were ruptured sequentially at 2-day intervals, starting with the capsule 1408A closest to the cell 1400. Concomitantly, a corresponding control capsule 1408B was also ruptured. The resulting EGF gradient and GFP-A549 response to the gradient is discussed below with respect to FIGS. 15A-17.
FIG. 15B is panoramic fluorescence images illustrating distribution of the GFP-expressing A549 cells of FIG. 15A over time during days 6-10 post-laser rupture of the EGF-containing programmable-release capsules of FIG. 15A. […]
FIG. 16 is a graphical representation of cellular fluorescence intensity of example EGF-expressing A549 cells vs time, with and without EGF release from example programmable-release capsules within a cell migration chamber in accordance with examples of this disclosure. […] The cellular growth rates were first quantitatively compared between samples with and without laser-triggered release of EGF by directly analyzing the fluorescence intensity of GFP-expressing cells. […]

[2] = tested on: GFP-expressing M4A4 cells (a melanoma cell line); assay: 3D-printed directional cell migration chamber, EGF capsules, M4A4; assay type: cell-based; conditions: EGF capsules sequentially ruptured over 10 days
Description: (§1) FIG. 21 is a graphical representation of relative selective directed migration of A549 tumor cells, M4A4 tumor cells, and non-tumor HUVEC cells of FIGS. 20A and 20B in response to laser rupture of the EGF-containing programmable release capsules within an example cell migration chamber in accordance with examples of this disclosure. FIG. 21 illustrates distributions of GFP-A549s, GFP-M4A4s, and RFP-HUVECs on day 10, showing the selective directed migration of tumor cells but not HUVECs (mean±s.d., n=4 per group). Scale bar: 500 μm.

[3] = tested on: RFP-expressing HUVEC cells; assay: 3D-printed directional cell migration chamber, EGF capsules, HUVEC; assay type: cell-based, human; conditions: EGF capsules sequentially ruptured over 10 days
Description: as §1

[4] = tested on: A549 cells in HUVEC-lined conduit; assay: Vascularized extravasation model, EGF capsules; assay type: cell-based; conditions: EGF gradients from ruptured capsules, fibroblast-laden gel, by day 4
Description: FIG. 24A is confocal images of a top view and a side view of a representative microchannel lined by HUVECs within a fibrin gel, such as in the context of the example 3D-printed culture chamber of FIG. 23. FIG. 24B is a fluorescence image of a representative microchannel lined by HUVECs and perfused by fluorescent fluid. In the example of FIG. 24A, a microchannel was created using the pin-molding technique within the fibrin gel of the culture chamber. […]
FIG. 26A is fluorescence images of a conduit of an example vascularized 3D-printed culture chamber illustrating guided extravasation of A549s and subsequent metastases generated over time on days 0 and 2 following the programmable release of EGF from EGF-containing programmable release capsules in accordance with examples of this disclosure. FIG. 26B is fluorescence images of the conduit of FIG. 26A illustrating guided extravasation of A549s and subsequent metastases generated over time on days 4 and 6 following laser-triggered rupture of EGF-containing programmable-release capsules (inset: fluorescence image showing transendothelial formation of metastasis). […]
FIG. 27 is fluorescence images showing the vascularized extravasation model of FIG. 26 after A549s were injected within the conduit without rupture of EGF capsules. […]

B1: EGF: EGF, a chemoattractant of carcinoma cells, encapsulated in programmable-release capsules (protein, UniProt P01133 23-1207, looked up)
Pro-epidermal growth factor: PQHWSCPEGTLAGNGNSTCVGPAPFLIFSHGNSIFRIDTEGTNYEQLVVDAGVSVIMDFHYNEKRIYWVDLERQLLQRVFLNGSRQERVCNIEKNVSGMAINWINEEVIWSNQQEGIITVTDMKGNNSHILLSALKYPANVAVDPVERFIFWSSEVAGSLYRADLDGVGVKALLETSEKITAVSLDVLDKRLFWIQYNREGSNSLICSCDYDGGSVHISKHPTQHNLFAMSLFGDRIFYSTWKMKTIWIANKHTGKDMVRINLHSSFVPLGELKVVHPLAQPKAEDDTWEPEQKLCKLRKGNCSSTVCGQDLQSHLCMCAEGYALSRDRKYCEDVNECAFWNHGCTLGCKNTPGSYYCTCPVGFVLLPDGKRCHQLVSCPRNVSECSHDCVLTSEGPLCFCPEGSVLERDGKTCSGCSSPDNGGCSQLCVPLSPVSWECDCFPGYDLQLDEKSCAASGPQPFLLFANSQDIRHMHFDGTDYGTLLSQQMGMVYALDHDPVENKIYFAHTALKWIERANMDGSQRERLIEEGVDVPEGLAVDWIGRRFYWTDRGKSLIGRSDLNGKRSKIITKENISQPRGIAVHPMAKRLFWTDTGINPRIESSSLQGLGRLVIASSDLIWPSGITIDFLTDKLYWCDAKQSVIEMANLDGSKRRRLTQNDVGHPFAVAVFEDYVWFSDWAMPSVMRVNKRTGKDRVRLQGSMLKPSSLVVVHPLAKPGADPCLYQNGGCEHICKKRLGTAWCSCREGFMKASDGKTCLALDGHQLLAGGEVDLKNQVTPLDILSKTRVSEDNITESQHMLVAEIMVSDQDDCAPVGCSMYARCISEGEDATCQCLKGFAGDGKLCSDIDECEMGVPVCPPASSKCINTEGGYVCRCSEGYQGDGIHCLDIDECQLGEHSCGENASCTNTEGGYTCMCAGRLSEPGLICPDSTPPPHLREDDHHYSVRNSDSECPLSHDGYCLHDGVCMYIEALDKYACNCVVGYIGERCQYRDLKWWELRHAGHGQQQKVIVVAVCVVVLVMLLLLSLWGAHYYRTQKLLSKNPKNPYEESSRDVRSRRPADTEDGMSSCPQPWFVVIKEHQDLKNGGQPVAGEDGQAADGSMQPTSWRQEPQLCGMGTEQGCWIPVSSDKGSCPQVMERSFHMPSYGTQTLEGGVEKPHSLLSANPLWQQRALDPPHQMELTQ
modifications: Pro-epidermal growth factor encapsulated in programmable-release capsules
maximum cell velocity of leading A549 cells ([1]; guidance of EGF cues from sequentially laser-ruptured capsules in fibrin gel, x-direction displacement, mean±s.d., n=4): 15.48±1.05 μm/h
growth (proliferation) of tumor cells, cellular fluorescence intensity ([1]; laser-triggered EGF release vs no release, 10 days): accelerated
directed migration of M4A4 cells [2]: exhibited directional movement
migratory response of HUVECs to EGF gradients [3]: negative migratory response
transendothelial behavior (extravasation) of A549s [4]: cells underwent both extravasation and proliferation
